Biological target: T1, human IL-5 (human, UniProt P05113 20-134)
T1 construct: The IL-5 reagent of the SPR assay is not described further; also called interleukin-5; soluble IL-5
Assay: standard surface plasmon resonance assays

B1: mepolizumab (monoclonal anti-IL-5 antibody; unstressed composition / control samples) (antibody, human IgG1, kappa)
heavy: not shown
light: not shown
modifications: N-terminal Gln cyclised to pyroglutamate (typically >95.0%); C-terminal K449 clipped (typically >98.0%); N299 N-glycosylated
notes: Batches MDS1 T04L003S and MDS2 T0413010; also called Oxidation Control; Light Exposure Control
Binder B1 has a Kd of under 0.0229 nM.

— patent publication US20210340246A1 (GlaxoSmithKline, published 2021)
